Results from patent US20260234242A1 (HAINAN SIMCERE ZAIMING PHARMACEUTICAL, published 2026).
Blank lines part the entries; values can stand above or below the binder they belong to.

Columns and labels:
[1] = molecular target: T1, human CDH6 with EC4 removed, on HEK293T cells (HEK293T-hCDH6-EC4 deletion) (human, UniProt P55285 54-790); experiment: FACS, HEK293T-hCDH6-EC4 deletion cells
T1 construct: Signal peptide not removed here
T1 sequence: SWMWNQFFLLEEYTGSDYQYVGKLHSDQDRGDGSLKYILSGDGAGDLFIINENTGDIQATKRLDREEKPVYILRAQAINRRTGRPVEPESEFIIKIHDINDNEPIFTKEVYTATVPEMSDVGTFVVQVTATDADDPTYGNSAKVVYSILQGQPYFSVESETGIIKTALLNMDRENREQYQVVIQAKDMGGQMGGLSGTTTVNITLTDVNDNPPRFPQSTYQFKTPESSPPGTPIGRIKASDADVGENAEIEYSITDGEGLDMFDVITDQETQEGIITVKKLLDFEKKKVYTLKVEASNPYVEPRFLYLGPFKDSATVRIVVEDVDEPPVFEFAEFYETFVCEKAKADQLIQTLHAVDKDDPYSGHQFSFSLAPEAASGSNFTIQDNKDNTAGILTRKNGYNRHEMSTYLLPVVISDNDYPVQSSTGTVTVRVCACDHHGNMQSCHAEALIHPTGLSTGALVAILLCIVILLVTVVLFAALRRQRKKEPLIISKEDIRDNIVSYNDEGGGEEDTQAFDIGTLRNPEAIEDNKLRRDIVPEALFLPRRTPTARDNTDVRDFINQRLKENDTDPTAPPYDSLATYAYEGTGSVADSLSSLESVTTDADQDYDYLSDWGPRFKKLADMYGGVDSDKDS
Source text: To confirm the binding epitope of the CDH6 antibody, the sequences after removal of these 5 regions were constructed into pcDNA3.1 vectors (purchased from Youbio, Cat. No. VT1001), and transfected into HEK293T cells (purchased from Cell Bank of Chinese Academy of Sciences, Cat. No. SCSP-502) to obtain 5 CDH6 truncated cell lines: HEK293T-hCDH6-EC1 deletion, HEK293T-hCDH6-EC2 deletion, HEK293T-hCDH6-EC3 deletion, HEK293T-hCDH6-EC4 deletion, and HEK293T-hCDH6-EC5 deletion.
The binding activity of the CDH6 chimeric antibodies to these 5 cell lines was assayed by FACS.

[2] = molecular target: T2, his-tagged human CDH6 extracellular region protein (hCDH6 ECD-his) (human, UniProt P55285 19-615); experiment: ELISA, coated antigen
T2 construct: also called Human CDH6-his; hCDH6-his; not shown: his tag
T2 sequence: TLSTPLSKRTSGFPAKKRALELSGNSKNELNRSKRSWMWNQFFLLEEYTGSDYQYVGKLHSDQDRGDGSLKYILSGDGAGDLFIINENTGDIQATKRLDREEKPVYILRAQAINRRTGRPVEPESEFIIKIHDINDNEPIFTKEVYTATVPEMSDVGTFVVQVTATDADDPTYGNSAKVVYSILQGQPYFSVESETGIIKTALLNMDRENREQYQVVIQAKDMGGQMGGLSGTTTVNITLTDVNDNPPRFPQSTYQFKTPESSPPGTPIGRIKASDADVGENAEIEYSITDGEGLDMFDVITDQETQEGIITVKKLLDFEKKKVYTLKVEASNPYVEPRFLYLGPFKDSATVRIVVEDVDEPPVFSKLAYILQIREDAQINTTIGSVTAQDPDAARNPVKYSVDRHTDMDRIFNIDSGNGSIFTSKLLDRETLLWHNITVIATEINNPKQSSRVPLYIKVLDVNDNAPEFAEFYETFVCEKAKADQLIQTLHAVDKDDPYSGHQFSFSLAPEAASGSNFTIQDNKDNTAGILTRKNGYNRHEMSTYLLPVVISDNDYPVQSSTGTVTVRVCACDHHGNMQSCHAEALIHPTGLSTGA

[3] = molecular target: T2, his-tagged human CDH6 extracellular …; experiment: SPR Biacore 8K, antibody captured on Protein A
Experimental: The affinity of the antibody for the antigen was determined by a multi-cycle kinetic method using a BIAcore 8K instrument. In each cycle, the antibody to be tested was captured using a Protein A chip (purchased from GE, Cat. No. 29-1275-56), and then the antigen human CDH6 protein (hCDH6-his, conventionally synthesized) was injected. The association and dissociation processes of the antibody with the antigen protein were recorded, and finally, the chip was regenerated using Glycine pH 1.5, wherein the mobile phase was HBS-EP+ (10 mM HEPES, 150 mM NaCl, 3 mM EDTA, 0.05% surfactant P20, and 1 mM Ca), the flow rate was 30 μL/min, the association time was 240 s, the dissociation time was 300 s, the regeneration time was 30 s, the detection temperature was 25° C., and the antigen concentration was 31.25-1000 nM. The data were analyzed using Biacore 8K analysis software (version No. 2.0) based on the 1:1 binding model to fit the antibody-antigen binding kinetic parameters, including the association rate constant ka, the dissociation rate constant kd, and the equilibrium dissociation constant KD. The affinity values of the control antibody DS-H01L02 were undetectable. Antibodies not shown in the table had undetectable affinity values.

- Max MFI [1]: 30000 MFI
- EC50 [2]: 0.04 nM
- Max OD450 [2]: 2.23 OD450
- Kd [3]: 8.87 nM
- koff [3]: 0.00585 s⁻¹
- kon [3]: 659000 M⁻¹ s⁻¹
B1: CHI-CDH6-1 (antibody, human IgG1, kappa, V domains shown)
VH: QVQLQQPGAELVRPGSSVKLSCKASGYTFTNYWMHWVKQRPIEGLEWIGDIDPSHSETHYTQKFKDKATLTVDKSSSTAYMQLSSLTSEDSAVYYCARGDLGRFDYWGQGTTLTVSS
VL: DIVLTQSPASLAVSLGQRATISCRASESVSIHGTHLMHWYQQKSGQPPKLLIYAASNLESGVPARFSGSGSETDFTFNIHPVEEEDAATYFCQQSFEDPWTFGGGTKLEIKR
notes: also called CHI-hCDH6-1; CH1-CDH6-1

- Max MFI [1]: 11800 MFI
B2: DS-H01L02 (antibody, human IgG1, kappa, V domains shown)
VH: EVQLVQSGAEVKKPGASVKVSCKASGYTFTRNFMHWVRQAPGQGLEWMGWIYPGDGETEYAQKFQGRVTITADTSTSTAYMELSSLRSEDTAVYYCARGVYGGFAGGYFDFWGQGTLVTVSS
VL: DIQMTQSPSSLSASVGDRVTITCKASQNIYKNLAWYQQKPGKAPKLLIYDANTLQTGVPSRFSGSGSGSDFTLTISSLQPEDFATYFCQQYYSGWAFGQGTKVEIKR
notes: Positive control, variable regions from WO2018212136A1; also called positive control anti-human CDH6 antibody

- Max MFI [1]: 20600 MFI
- EC50 [2]: 0.043 nM
- Max OD450 [2]: 2.32 OD450
- Kd [3]: 53.5 nM
- koff [3]: 0.00267 s⁻¹
- kon [3]: 49900 M⁻¹ s⁻¹
B3: NOV0712 (antibody, human IgG1, kappa, V domains shown)
VH: QVQLLESGGGLVQPGGSLRLSCAASGFTFSSHGMHWVRQAPGKGLEWVSVISGSGSNTGYADSVKGRFTISRDNSKNTLYLQMNSLRAEDTAVYYCARQWGSYAFDSWGQGTLVTVSS
VL: DIQMTQSPSSLSASVGDRVTITCRASQSISSYLNWYQQKPGKAPKLLIYAVSTLQSGVPSRFSGSGSGTDFTLTISSLQPEDFATYYCQQSGTFPPTTFGQGTKVEIKR
notes: as for B2
